Experimental data: the Immune Epitope Database (IEDB)

How the values were obtained:
HLA-A*68:02 = assay: IEDB peptide-MHC binding, purified MHC/direct/fluorescence; filed as Kd, often an IC50 or EC50 that approximates it; ≥ and ≤ were set here for values at or beyond the usual limits of such assays; conditions: source organism: Zaire ebolavirus
HLA-A*02:12 = assay: as above; conditions: source organism: Zaire ebolavirus
HLA-A*02:16 = assay: as above; conditions: source organism: Zaire ebolavirus
HLA-A*02:03 = assay: as above; conditions: source organism: Zaire ebolavirus
HLA-B*15:01 [1] = assay: as above
HLA-A*03:01 [2] = assay: as above; conditions: source organism: Zaire ebolavirus
HLA-A*02:19 = assay: as above; conditions: source organism: Zaire ebolavirus
HLA-A*02:11 = assay: as above; conditions: source organism: Zaire ebolavirus
HLA-A*02:01 = assay: IEDB peptide-MHC binding, purified MHC/competitive/fluorescence; filed as Kd, often an IC50 or EC50 that approximates it; ≥ and ≤ were set here for values at or beyond the usual limits of such assays
HLA-A*25:01 = assay: as above; conditions: source organism: Zaire ebolavirus
HLA-B*35:01 = assay: as above; conditions: source organism: Zaire ebolavirus
HLA-A*69:01 = assay: as above; conditions: source organism: Zaire ebolavirus
HLA-A*26:01 = assay: as above; conditions: source organism: Zaire ebolavirus
HLA-B*39:01 = assay: as above; conditions: source organism: Zaire ebolavirus
HLA-B*27:03 = assay: as above; conditions: source organism: Zaire ebolavirus
HLA-B*51:01 = assay: as above; conditions: source organism: Zaire ebolavirus
HLA-B*57:01 = assay: as above; conditions: source organism: Zaire ebolavirus
HLA-C*07:02 = assay: IEDB peptide-MHC binding, purified MHC/direct/fluorescence; filed as Kd, often an IC50 or EC50 that approximates it; ≥ and ≤ were set here for values at or beyond the usual limits of such assays
HLA-C*03:03 = assay: as above; conditions: source organism: Escherichia coli HS
HLA-C*12:03 = assay: as above; conditions: source organism: Escherichia coli HS
HLA-C*06:02 [3] = assay: as above; conditions: source organism: Escherichia coli HS
HLA-B*83:01 = assay: IEDB peptide-MHC binding, purified MHC/competitive/fluorescence; filed as Kd, often an IC50 or EC50 that approximates it; ≥ and ≤ were set here for values at or beyond the usual limits of such assays
HLA-A*32:07 = assay: as above
HLA-B*40:13 = assay: as above
HLA-B*48:01 = assay: as above; conditions: source organism: Escherichia coli HS
HLA-B*15:42 = assay: as above
HLA-B*27:20 = assay: as above
HLA-B*45:06 = assay: as above
HLA-C*14:02 [4] = assay: as above; conditions: source organism: Escherichia coli HS
HLA-A*32:15 = assay: as above; conditions: source organism: Escherichia coli HS
HLA-C*04:01 = assay: as above; conditions: source organism: Escherichia coli HS
HLA-B*58:01 = assay: as above; conditions: source organism: Corynebacterium glutamicum ATCC 13032
HLA-A*01:01 [5] = assay: as above; conditions: source organism: Corynebacterium glutamicum ATCC 13032
HLA-A*24:02 [6] = assay: as above; conditions: source organism: Corynebacterium glutamicum ATCC 13032
HLA-B*40:01 = assay: as above; conditions: source organism: Corynebacterium glutamicum ATCC 13032
HLA-B*15:01 [7] = assay: as above; conditions: source organism: Corynebacterium glutamicum ATCC 13032
HLA-A*03:01 [8] = assay: as above
HLA-B*07:02 = assay: as above; conditions: source organism: Corynebacterium glutamicum ATCC 13032
HLA-B*27:05 = assay: as above; conditions: source organism: Corynebacterium glutamicum ATCC 13032
HLA-A*31:01 = assay: as above; conditions: source organism: Shigella flexneri 5 str. 8401
HLA-A*68:23 = assay: as above; conditions: source organism: Shigella flexneri 5 str. 8401
HLA-A*01:01 [9] = assay: IEDB peptide-MHC binding, purified MHC/direct/fluorescence; filed as Kd, often an IC50 or EC50 that approximates it; ≥ and ≤ were set here for values at or beyond the usual limits of such assays; conditions: source organism: Homo sapiens
HLA-A*11:01 = assay: as above; conditions: source organism: Homo sapiens
HLA-A*01:01 [10] = assay: IEDB peptide-MHC binding, purified MHC/competitive/radioactivity; ≥ and ≤ were set here for values at or beyond the usual limits of such assays; conditions: source organism: Homo sapiens
HLA-C*15:02 = assay: IEDB peptide-MHC binding, purified MHC/direct/fluorescence; filed as Kd, often an IC50 or EC50 that approximates it; ≥ and ≤ were set here for values at or beyond the usual limits of such assays; conditions: source organism: Yersinia pseudotuberculosis IP 31758
HLA-C*14:02 [11] = assay: as above; conditions: source organism: Yersinia pseudotuberculosis IP 31758
HLA-C*06:02 [12] = assay: IEDB peptide-MHC binding, purified MHC/competitive/fluorescence; filed as Kd, often an IC50 or EC50 that approximates it; ≥ and ≤ were set here for values at or beyond the usual limits of such assays; conditions: source organism: Yersinia pseudotuberculosis IP 31758
HLA-B*40:02 = assay: IEDB peptide-MHC binding, purified MHC/competitive/fluorescence; ≥ and ≤ were set here for values at or beyond the usual limits of such assays; conditions: source organism: Homo sapiens
HLA-A*24:02 [13] = assay: as above; conditions: source organism: Homo sapiens
[14] = source organism: Escherichia coli HS
[15] = source organism: Corynebacterium glutamicum ATCC 13032
[16] = source organism: Shigella flexneri 5 str. 8401
[17] = source organism: Yersinia pseudotuberculosis IP 31758

NFFHASLAY
Kd (HLA-A*68:02): ≥ 20 µM
Kd (HLA-A*02:12): ≥ 20 µM
Kd (HLA-A*02:16): ≥ 20 µM
Kd (HLA-A*02:03): ≥ 20 µM
Kd (HLA-B*15:01 [1]; source organism: Sudan ebolavirus - Maleo (1979)): 64.1 nM
Kd (HLA-A*03:01 [2]): ≥ 20 µM
Kd (HLA-A*02:19): ≥ 20 µM
Kd (HLA-A*02:11): ≥ 20 µM
Kd (HLA-A*02:01; source organism: Zaire ebolavirus): ≥ 20 µM
Kd (HLA-A*25:01): ≥ 20 µM
Kd (HLA-B*35:01): 6 nM
Kd (HLA-A*69:01): ≥ 20 µM
Kd (HLA-A*26:01): ≥ 20 µM
Kd (HLA-B*39:01): ≥ 20 µM
Kd (HLA-B*27:03): ≥ 20 µM
Kd (HLA-B*51:01): ≥ 20 µM
Kd (HLA-B*57:01): ≥ 20 µM

MMWATAQAL
Kd (HLA-C*07:02; [14]): 572 nM
Kd (HLA-C*03:03): 337 nM
Kd (HLA-C*12:03): 1640 nM
Kd (HLA-C*06:02 [3]): ≥ 20 µM
Kd (HLA-B*83:01; [14]): ≥ 5000 nM
Kd (HLA-A*32:07; [14]): 42 nM
Kd (HLA-B*40:13; [14]): 212 nM
Kd (HLA-B*48:01): 242 nM
Kd (HLA-B*15:42; [14]): ≥ 5 µM
Kd (HLA-B*27:20; [14]): 6.4 nM
Kd (HLA-B*45:06; [14]): ≥ 5 µM
Kd (HLA-C*14:02 [4]): 6.4 nM
Kd (HLA-A*32:15): 391 nM
Kd (HLA-C*04:01): ≥ 5 µM

MSSAAHLLY
Kd (HLA-B*58:01): 6.1 nM
Kd (HLA-A*01:01 [5]): 14.1 nM
Kd (HLA-A*02:01; [15]): ≥ 20 µM
Kd (HLA-A*24:02 [6]): ≥ 20 µM
Kd (HLA-B*40:01): ≥ 20 µM
Kd (HLA-B*15:01 [7]): 46.5 nM
Kd (HLA-A*03:01 [8]; [15]): 161 nM
Kd (HLA-B*07:02): ≥ 20 µM
Kd (HLA-B*27:05): ≥ 20 µM

TTIPTNLFR
Kd (HLA-B*83:01; [16]): ≥ 5000 nM
Kd (HLA-A*31:01): 121 nM
Kd (HLA-A*68:23): 332 nM
Kd (HLA-B*15:42; [16]): ≥ 5 µM
Kd (HLA-B*45:06; [16]): ≥ 5 µM
Kd (HLA-A*03:01 [8]; [16]): 3000 nM

IVDCLTEMY
Kd (HLA-A*01:01 [9]): 164 nM
Kd (HLA-A*11:01): 2020 nM
Kd (HLA-B*15:01 [1]; source organism: Homo sapiens): 1090 nM
IC50 (HLA-A*01:01 [10]): 7 nM

FQWWRSHPL
Kd (HLA-C*15:02): 1400 nM
Kd (HLA-C*14:02 [11]): 232 nM
Kd (HLA-B*83:01; [17]): 475 nM
Kd (HLA-A*32:07; [17]): 73.6 nM
Kd (HLA-A*02:01; [17]): ≤ 0.0001 µM
Kd (HLA-B*40:13; [17]): 1.3 nM
Kd (HLA-C*06:02 [12]): 837 nM
Kd (HLA-B*15:42; [17]): ≥ 5 µM
Kd (HLA-B*27:20; [17]): ≤ 0.1 nM
Kd (HLA-B*45:06; [17]): ≥ 5 µM

FYYNAFHWAI
IC50 (HLA-B*40:02): ≥ 20 µM
IC50 (HLA-A*24:02 [13]): 305 nM
Kd (HLA-C*07:02; source organism: Homo sapiens): 182 nM
